Laboratory results: patent US20250387497A1, “MULTIVALENT MULTISPECIFIC CONJUGATES AND RELATED COMPOSITIONS AND METHODS OF USE” (Purdue Research Foundation, priority 2022, published 2025)
Several values for one entry are separate records, joined by “and”; a condition that tells them apart may be missing. Equal values may be shown once.

Experiments:
[1] = target: epidermal growth factor receptor (EGFR); assay: binding affinity, method not stated
[2] = target: Her2 (human epidermal growth factor receptor 2); assay: binding affinity, method not stated

Binder | Kd [1] [nM] | Kd [2]
YHWYGYTPQNVI [peptide "E", binding motif for EGFR, …] | 459000 | 
FCGDGFYACYMDV [peptide "H", binding motif for Her2, …] |  | < 500 nM and 300 nM
